According to publication PMC4877379:
Numbering of substitutions follows the chain as printed.

biological target: T1, CodY (B. cytotoxicus CVUAS 2833) (Bacillus cytotoxicus CVUAS 2833) (UniProt A7GRF8); test: EMSA
T1 sequence: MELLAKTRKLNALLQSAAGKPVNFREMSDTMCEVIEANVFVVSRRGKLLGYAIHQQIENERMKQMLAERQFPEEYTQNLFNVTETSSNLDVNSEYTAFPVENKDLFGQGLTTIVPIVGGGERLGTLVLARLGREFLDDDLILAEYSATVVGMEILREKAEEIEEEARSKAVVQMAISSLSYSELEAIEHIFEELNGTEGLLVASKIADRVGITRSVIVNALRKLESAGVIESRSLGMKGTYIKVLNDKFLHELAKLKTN

Substance	Kd [nM]
PcytK-1	> 1000

biological target: T2, CodY (B. cereus INRA C3) (Bacillus cereus INRA C3) (UniProt Q819X8); test: EMSA
T2 sequence: T1 sequence with N78S, V82I, E94A, K103R, D104E, R133Q, A147S, H251Q

Substance	Kd [nM]
AAATTATCGATCGTAATCGACAAAATTTTTCTATTTACGCATTAAAAATTTAATGTTTTAATGAACAACATAACTGGTATGACCAGACAGAAAGGATAAGGTTACGCTAATAGGAATTATAGTGAAGTTGTAAGTAACATTATGTTGAAAATATTTTTCGAATAGTCTATTTATTTACAAGAGGTCAAGAATCAAGTTTGTAATAAACGTGTTCTAAGTTTCTGCATAACAAAAGTGAAGTTATTCCGCAATAAAAGTATAAGCGATGTACAGTATAATTTTACCTTTTTTAGTCTAGTAAGGAGTTTGCTGA (double strand) [Phbl-2]	250
AATAATGATATTAGGATGTTTTGTGAAAAAATCAACAATATAACATATATTACTAAATATATCTACATTTTATGCAATTATACATAACTAAATAAAGGTAAAAAAGTATAAAAAGACCTATTATATTATTCTATAAGTATTTTTTCTAAAATAAAATTTCTCGGTTGAGCTAAAATAGTTATTTTTAACCGTATACACATTAATTTGTAATCATTACAATTACAGAAATGAAATTTACGGATAACTATATTTGTATAATTTTTTTCGGTTCATATTTTTATTTAACAGTAAATTATCGATCGTAATC (double strand) [Phbl-1]	700
ATCCGAATTCTGTATATGCTATGCATAATTGCATACGGGGTTAAAAATTATATCAATATAATTTTACCGGTTGTTTGCAAGTAGTGTTTTCTGTTGTGATATGTAGATATTTCAATCGATAAAGTGAATCGGATTATATTTTGAAATAAGGACATGAAAGCTTGAAAATAAAGGGAATGAAAATACTTCTTTACGTTATATAAACAGCTGTGTTTAAATGACCTTACAGTACAAAACTTATATGAAAACAAAACGAAATTTCATATTTACGTATGTTGTTTGGTTTAAAATGAATAATATTTTTATGTAATATATTCACTGTGTGAATGTGGGAATTTCGATGAAATAGAAAATTTATACAATATTATTCATACTAAACACATATGAAAAGTTTTATAACAATAAGTAAGTACTGTAGCAATAACAGTTGGGAGAGATGGTTCATACATAGATCACGGTGAGAACGTTCTCTATTTTAACCATCTCAAATTATGGGCAAGAAAATAGAATAATAAAATGCGATAGTAATAGTTGCTAATACATAGGAGGAGTTAAAGTGGATCCGACT (double strand) [Pnhe INRA C3]	125
CAAGTTTGTAATAAACGTGTTCTAAGTTTCTGCATAACAAAAGTGAAGTTATTCCGCAATAAAAGTATAAGCGATGTACAGTATAATTTTACCTTTTTTAGTCTAGTAAGGAGTTTGCTGATAAAACTAAGAGTAATATTATTAAATTTAAATTAAACAATGTTATGGCAAGATTAACTGTAAGCATTGGTTTATTGATTCTCGCGGTTCTGTAAGTTAAACCGCAATTCTAGGGAAGAATTACACATTTACTATTCATAGGGTGCTTGATTCAAATATAGTTAATAAATTTTTGTTATTTATATTTGAAAAAATAGAGTATCGAAGTGAGAGG (double strand) [Phbl-4]	700
PcytK-2	> 1000
PinhA1 INRA C3	250
TCTAGTAAGGAGTTTGCTGATAAAACTAAGAGTAATATTATTAAATTTAAATTAAACAATGTTATGGCAAGATTAACTGTAAGCATTGGTTTATTGATTCTCGCGGTTCTGTAAGTTAAACCGCAATTCTAGGGAAGAATTACACATTTACTATTCATAGGGTGCTTGATTCAAATATAGTTAATAAATTTTTGTTATTTATATTTGAAAAAATAGAGTATCGAAGTGAGAGGTAAGTAAAATCCTTACATTCTATTAGAAGTAAAAAATAACGATATTATCCTATCTGAAAGATTTCTCCTTCTTAATCAGTTTACAAAGAGAGAGGTCATACAAGTTATATGAATTAAGTTATAAAAACAATGGTAAAGGAGTGTACGGAAT (double strand) [Phbl-3]	700
